According to patent US20050037969A1 (ARBOR VITA, published 2005):
Ends that are not written are not given here. * marks the point of attachment. Biotin = O=C1N[C@H]2[C@H](CS[C@H]2CCCCC(=O)*)N1

Tests used:
Assay in all cases: A/G assays
[1] = target: T1, GST-cytohesin binding protein PDZ domain fusion protein (Homo sapiens (Human), UniProt O60759 74-165)
T1 construct: also called CBP; not shown: glutathione S-transferase encoded by vector pGEX-3X (Pharmacia)
T1 sequence: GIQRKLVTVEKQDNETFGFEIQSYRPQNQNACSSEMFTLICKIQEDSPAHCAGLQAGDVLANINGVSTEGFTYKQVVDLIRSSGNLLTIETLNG

[2] = target: T2, TAX-IP2L PDZ-GST fusion protein (Homo sapiens (Human), UniProt Q8TF64 107-197)
T2 construct: Order of GST and PDZ part and limits not seen in the excerpts
T2 sequence: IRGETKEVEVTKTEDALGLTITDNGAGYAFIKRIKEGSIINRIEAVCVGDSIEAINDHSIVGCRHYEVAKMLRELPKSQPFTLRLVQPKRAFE

[3] = target: T3, K858 PDZ-GST fusion protein (Homo sapiens (Human), UniProt Q8WWI1 1038-1131)
T3 construct: Order of GST and PDZ part and limits not seen in the excerpts
T3 sequence: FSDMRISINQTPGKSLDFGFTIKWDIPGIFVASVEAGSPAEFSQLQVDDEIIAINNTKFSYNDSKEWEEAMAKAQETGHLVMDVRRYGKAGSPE

[4] = target: T4, GST-AF6 PDZ domain fusion protein (Homo sapiens (Human), UniProt P55196 1001-1093)
T4 construct: also called af-6 protein; not shown: glutathione S-transferase encoded by vector pGEX-3X (Pharmacia)
T4 sequence: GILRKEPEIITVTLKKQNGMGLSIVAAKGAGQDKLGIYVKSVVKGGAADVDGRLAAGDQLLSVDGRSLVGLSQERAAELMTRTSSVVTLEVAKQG

[5] = target: T5, GST-TAX-IP40 PDZ domain fusion protein (human, UniProt Q6B4M5 150-252 (rat entry))
T5 construct: also called TAX40; not shown: glutathione S-transferase encoded by vector pGEX-3X (Pharmacia)
T5 sequence: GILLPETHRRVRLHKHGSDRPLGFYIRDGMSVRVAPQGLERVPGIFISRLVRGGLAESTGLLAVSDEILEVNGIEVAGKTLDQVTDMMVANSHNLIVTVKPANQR

[6] = target: T6, GEF PDZ-GST fusion protein (Homo sapiens (Human), UniProt Q8TEU7 293-400)
T6 construct: The label GEF is not explained in the excerpts
T6 sequence: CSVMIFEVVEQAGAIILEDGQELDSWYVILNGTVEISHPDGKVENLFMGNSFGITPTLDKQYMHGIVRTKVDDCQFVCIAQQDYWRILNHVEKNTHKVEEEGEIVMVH

[7] = target: T7, GST-RGS12 PDZ domain fusion protein (human, UniProt O14924 17-85)
T7 construct: also called human regulator of G-protein signalling 12; not shown: glutathione S-transferase encoded by vector pGEX-3X (Pharmacia)
T7 sequence: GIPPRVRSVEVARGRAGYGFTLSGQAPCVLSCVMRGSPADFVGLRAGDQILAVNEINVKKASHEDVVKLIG

[8] = target: T8, GST-KIAA0303 PDZ domain fusion protein (Homo sapiens (Human), UniProt O15021 1138-1228)
T8 construct: also called K303; not shown: glutathione S-transferase encoded by vector pGEX-3X (Pharmacia)
T8 sequence: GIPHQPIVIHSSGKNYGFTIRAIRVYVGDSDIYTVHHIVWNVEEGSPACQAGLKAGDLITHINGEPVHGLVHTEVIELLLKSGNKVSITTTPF

[9] = target: T9, X11β PDZ-GST fusion protein (Rattus norvegicus (Rat), UniProt O35431 560-745)
T9 construct: Order of GST and PDZ part and limits not seen in the excerpts
T9 chain: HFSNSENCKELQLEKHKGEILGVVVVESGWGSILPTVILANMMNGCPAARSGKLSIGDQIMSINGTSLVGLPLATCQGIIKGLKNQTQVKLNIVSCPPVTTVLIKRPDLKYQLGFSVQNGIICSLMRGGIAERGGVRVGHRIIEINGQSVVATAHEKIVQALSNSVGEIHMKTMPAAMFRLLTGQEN

[10] = target: T10, GST-CASK PDZ domain fusion protein (Homo sapiens, UniProt O14936 486-575)
T10 construct: also called Homo sapiens CASK protein
T10 sequence: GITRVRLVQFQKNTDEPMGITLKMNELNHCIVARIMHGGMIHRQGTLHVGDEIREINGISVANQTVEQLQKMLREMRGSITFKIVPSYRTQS

[11] = target: T11, MINT3 PDZ-GST fusion protein
T11 construct: Order of GST and PDZ part and limits not seen in the excerpts
T11 chain: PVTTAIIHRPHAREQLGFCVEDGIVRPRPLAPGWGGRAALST

[12] = target: T12, NSP PDZ-GST fusion protein (Homo sapiens (Human), UniProt Q92743 370-466)
T12 construct: The label NSP is not explained in the excerpts
T12 sequence (Q92743 other isoform, or with tags, fused parts or gaps limits assumed): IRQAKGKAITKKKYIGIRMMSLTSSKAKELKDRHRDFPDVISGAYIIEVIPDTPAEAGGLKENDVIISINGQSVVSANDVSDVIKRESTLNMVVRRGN

[13] = target: T13, GST-DLG5 (p-dlg) PDZ domain fusion protein (Human, UniProt Q8TDM6 1343-1583)
T13 construct: also called Human discs large protein p-dlg; not shown: glutathione S-transferase encoded by vector pGEX-3X (Pharmacia)
T13 sequence: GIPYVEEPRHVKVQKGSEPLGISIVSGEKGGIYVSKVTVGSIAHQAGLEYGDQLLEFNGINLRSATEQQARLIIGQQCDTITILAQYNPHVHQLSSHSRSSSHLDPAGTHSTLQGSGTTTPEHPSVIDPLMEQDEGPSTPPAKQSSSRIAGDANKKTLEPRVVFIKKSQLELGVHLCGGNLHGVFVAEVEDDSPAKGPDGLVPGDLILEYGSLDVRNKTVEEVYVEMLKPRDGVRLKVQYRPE

[14] = target: T14, ConEn PDZ-GST fusion protein (Homo sapiens (Human), UniProt Q969H4 193-287)
T14 construct: The label ConEn is not explained in the excerpts
T14 sequence: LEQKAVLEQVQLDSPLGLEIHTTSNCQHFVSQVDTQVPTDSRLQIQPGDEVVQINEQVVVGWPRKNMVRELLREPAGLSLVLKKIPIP

[15] = target: T15, KIAA0807 (PDZ domain)-GST fusion protein (human, UniProt Q6P0Q8 1104-1192)
T15 construct: also called K807; KIAA807; not shown: glutathione S-transferase encoded by vector pGEX-3X (Pharmacia)
T15 sequence: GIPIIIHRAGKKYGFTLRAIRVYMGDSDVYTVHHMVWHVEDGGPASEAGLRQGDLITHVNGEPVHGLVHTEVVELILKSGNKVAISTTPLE

Measured: binding result

B1: Mannose receptor C-terminal peptide AA31L (peptide)
peptide: Biotin-GTSDMKDLVGNIEQNEHSVI
notes: Only the last four residues are seen in the excerpts
no binding: all assays above
